How the values were obtained:
Assay in all cases: flow cytometry on transfected HEK293T cells
[1] = molecular target: T1, CD93^C104S (GFP tag, expressed in HEK293T) (human, UniProt Q9NPY3 22-652)
T1 construct: not shown: C-terminal GFP tag from vector pEGFP-N1
T1 sequence: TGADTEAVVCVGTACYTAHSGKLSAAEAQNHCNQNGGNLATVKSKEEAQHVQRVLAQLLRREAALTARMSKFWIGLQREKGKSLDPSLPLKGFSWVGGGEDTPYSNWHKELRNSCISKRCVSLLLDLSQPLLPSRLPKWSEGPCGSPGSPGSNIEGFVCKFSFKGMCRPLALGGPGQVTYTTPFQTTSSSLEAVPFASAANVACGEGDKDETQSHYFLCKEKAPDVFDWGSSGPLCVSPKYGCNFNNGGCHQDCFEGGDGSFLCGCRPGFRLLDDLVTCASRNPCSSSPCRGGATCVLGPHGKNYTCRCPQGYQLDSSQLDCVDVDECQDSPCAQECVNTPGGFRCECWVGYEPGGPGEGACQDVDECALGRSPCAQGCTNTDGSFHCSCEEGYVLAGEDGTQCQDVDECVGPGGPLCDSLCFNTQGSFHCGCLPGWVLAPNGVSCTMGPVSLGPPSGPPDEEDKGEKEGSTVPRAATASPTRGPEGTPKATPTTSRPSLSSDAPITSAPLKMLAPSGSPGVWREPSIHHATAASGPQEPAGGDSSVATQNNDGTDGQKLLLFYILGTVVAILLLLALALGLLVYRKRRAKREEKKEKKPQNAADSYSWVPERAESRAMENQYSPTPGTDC

[2] = molecular target: T2, CLEC14A^C103S (GFP tag, expressed in HEK293T) (human, UniProt Q86T13 22-490)
T2 construct: not shown: C-terminal GFP tag from vector pEGFP-N1
T2 sequence: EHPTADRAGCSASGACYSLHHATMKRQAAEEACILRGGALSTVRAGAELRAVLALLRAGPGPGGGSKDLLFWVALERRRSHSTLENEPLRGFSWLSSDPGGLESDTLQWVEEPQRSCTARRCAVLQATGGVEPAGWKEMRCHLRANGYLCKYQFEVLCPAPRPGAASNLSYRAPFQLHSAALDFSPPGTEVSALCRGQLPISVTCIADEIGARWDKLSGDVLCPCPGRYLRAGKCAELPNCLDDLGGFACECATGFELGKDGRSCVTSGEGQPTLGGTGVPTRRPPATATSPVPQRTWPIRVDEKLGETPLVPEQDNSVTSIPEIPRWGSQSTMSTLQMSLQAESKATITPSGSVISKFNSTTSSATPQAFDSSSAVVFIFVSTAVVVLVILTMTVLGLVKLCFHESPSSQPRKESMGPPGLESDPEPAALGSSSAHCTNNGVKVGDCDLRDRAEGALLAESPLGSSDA

[3] = molecular target: T3, CLEC14A^C138S (GFP tag, expressed in HEK293T) (human, UniProt Q86T13 22-490)
T3 construct: not shown: C-terminal GFP tag from vector pEGFP-N1
T3 sequence: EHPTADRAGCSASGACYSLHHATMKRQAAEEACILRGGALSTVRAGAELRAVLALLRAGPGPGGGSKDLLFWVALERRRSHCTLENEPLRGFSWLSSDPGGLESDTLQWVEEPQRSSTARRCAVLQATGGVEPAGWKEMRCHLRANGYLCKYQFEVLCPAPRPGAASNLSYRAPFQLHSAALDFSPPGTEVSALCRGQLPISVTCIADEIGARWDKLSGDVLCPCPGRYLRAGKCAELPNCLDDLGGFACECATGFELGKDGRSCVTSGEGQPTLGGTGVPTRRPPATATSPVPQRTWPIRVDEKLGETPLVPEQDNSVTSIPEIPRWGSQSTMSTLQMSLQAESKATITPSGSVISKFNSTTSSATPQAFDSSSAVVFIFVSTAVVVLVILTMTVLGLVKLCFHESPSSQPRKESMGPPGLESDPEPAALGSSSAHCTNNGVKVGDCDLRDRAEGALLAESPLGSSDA

[4] = molecular target: T4, CD93^C136S (GFP tag, expressed in HEK293T) (human, UniProt Q9NPY3 22-652)
T4 construct: not shown: C-terminal GFP tag from vector pEGFP-N1
T4 sequence: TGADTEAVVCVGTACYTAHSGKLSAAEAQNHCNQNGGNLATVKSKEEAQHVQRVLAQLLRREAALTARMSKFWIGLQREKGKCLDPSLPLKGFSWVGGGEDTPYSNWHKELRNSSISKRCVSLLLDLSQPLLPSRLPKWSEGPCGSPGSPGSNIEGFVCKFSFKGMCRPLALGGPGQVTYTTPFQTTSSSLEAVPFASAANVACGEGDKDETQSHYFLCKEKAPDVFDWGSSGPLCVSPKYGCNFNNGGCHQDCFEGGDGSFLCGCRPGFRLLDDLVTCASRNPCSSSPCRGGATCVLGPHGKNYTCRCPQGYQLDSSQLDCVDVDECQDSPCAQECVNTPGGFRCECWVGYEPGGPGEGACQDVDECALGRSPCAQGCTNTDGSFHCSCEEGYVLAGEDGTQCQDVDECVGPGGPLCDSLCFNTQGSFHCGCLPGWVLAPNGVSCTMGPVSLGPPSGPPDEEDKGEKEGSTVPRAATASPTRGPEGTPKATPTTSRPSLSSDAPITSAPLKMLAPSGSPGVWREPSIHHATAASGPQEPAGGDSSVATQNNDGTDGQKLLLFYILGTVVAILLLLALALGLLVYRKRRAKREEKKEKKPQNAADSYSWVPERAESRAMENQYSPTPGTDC

Measured: binding result

B1: biotinylated MMRN2^495-674 (human, expressed in E. coli with a His tag and a BirA tag) (ligand)
chain: QKLYLDLDVIREGQRDATRALEETQVSLDERRQLDGSSLQALQNAVDAVSLAVDAHKAEGERARAATSRLRSQVQALDDEVGALKAAAAEARHEVRQLHSAFAALLEDALRHEAVLAALFGEEVLEEMSEQTPGPLPLSYEQIRVALQDAASGLQEQALGWDELAARVTALEQASEPPRP
modifications: biotin on the BirA tag
notes: Used for staining of transfected HEK293T cells in flow cytometry, detected with streptavidin-PE; not shown: BirA tag and His tag (vector pET23a)
no binding (tested: 20 µg/mL): all assays above
